Test results published in patent publication CN114478780A (AGRICULTURAL UNIV IN CHINA, dated 2022).

B1: HN3 (antibody, V domains shown)
VH: QVQLVQSGGGLVQPGGSLRLSCAASYFDFDSYEMSWVRQAPGKGLEWIGSIYHSGSTYYNPSLKSRVTISRDNSKNTLYLQMNTLRAEDTATYYCARVNMDRFDYWGQGTLVTVSS

Legend:
细胞表面的GPC3蛋白 = 细胞表面的GPC3蛋白 (UniProt P51654); experiment: cell-based or functional assay
GPC3-his蛋白 = GPC3-his蛋白 (UniProt P51654 25-559); experiment: SPR (Biacore), GPC3-his amine-coupled on CM5, antibody as analyte, 1:1 Langmuir fit

| Molecule | 杀伤活性 IC50, Hep3BLG cells, 72 h, luciferase viability (细胞表面的GPC3蛋白) | Kd (GPC3-his蛋白) |
| --- | --- | --- |
| HN3-PE24 | 0.109 mg/L | – |
| B1 | – | 1.95 nM |
